Publication PMC8582585, “An HLA-A*11:01-Binding Neoantigen from Mutated NPM1 as Target for TCR Gene Therapy in AML” (Cancers, 2021)
Peptide text beside a SMILES is read from it.

Tests used:
HLA-A*02:01 (HLA-A2) = HLA-A*02:01 (HLA-A2) (Homo sapiens, UniProt P04439, D140Y/D185E/D98H/E176V/E277Q/G131W/G231S/I119V/I121R/I166T/I218V/L300P/L318F/N151K/N90K/P208A/P217A/Q86G/Q94H/R138H/R169H/T345S); settings: cited from earlier work
Description: In this study, we investigated whether […] is also a neoantigen that can be targeted by TCR gene therapy. We isolated various T-cells for […] and cloned the TC ...

HLA-A*03:01 (HLA-A3) = target: T1, HLA-A*03:01 (HLA-A3) (Homo sapiens, UniProt P04439); test: Competition-based peptide-HLA class I binding assay, HLA-A3
T1 construct: soluble HLA molecules mixed with a fluorescein-labeled peptide; made in house; host or cells: Escherichia coli

HLA-A*11:01 (HLA-A11) = target: T2, HLA-A*11:01 (HLA-A11) (Homo sapiens, UniProt P04439, A114D/D185E/E176A/F33Y/L180Q/S129P/T187R); test: Competition-based peptide-HLA class I binding assay, HLA-A11
T2 construct: soluble HLA molecules mixed with a fluorescein-labeled peptide; made in house; host or cells: Escherichia coli

[1] = target: soluble HLA-A*03:01 (heavy chain with β2M); test: competition-based peptide-HLA class I binding assay (gel-filtration HPLC with fluorescence detection); 25 pmol HLA heavy chain, 25 pmol β2M, 100 fmol KVFPC(Fl)ALINK and 10-fold serial dilutions of competitor peptide in 100 µL; 100 mM phosphate, 75 mM NaCl, 1 mM CHAPS, pH 7; 24 h at RT; IC50 = 50% reduction of the fluorescent pHLA-complex peak
[2] = target: soluble HLA-A*11:01 (heavy chain with β2M); test: as above

**Q.** For CLAVEEVSL, which HLA-A2 binding (HLA-A*02:01 (HLA-A2)) is on record?
**A.** HLA-A*02:01 (HLA-A2)-binding

**Q.** For `CC(C)C[C@H](NC(=O)[C@H](CO)NC(=O)[C@@H](NC(=O)[C@H](CCC(=O)O)NC(=O)[C@H](CCC(=O)O)NC(=O)[C@@H](NC(=O)[C@H](C)N)C(C)C)C(C)C)C(=O)N[C@@H](CCCNC(=N)N)C(=O)N[C@@H](CCCCN)C(=O)O` (H-AVEEVSLRK-OH), which IC50 (HLA-A*03:01 (HLA-A3)) is on record?
**A.** 1330 nM

**Q.** What about the IC50 (HLA-A*11:01 (HLA-A11)) of the same molecule?
**A.** 50.9 nM

**Q.** With AVEEVSLRK [dNPM1 … peptide] as the molecule, how does the IC50 [1] read?
**A.** 1330 nM

**Q.** And the IC50 [2]?
**A.** 50.9 nM
